According to PMC3040262:

Molecular target: PP1α_(7-330), His6-tag removed by TEV protease, P62136
Assay: SEC

PP1α_(7-330), His6-tag removed by TEV protease, P62136, sequence (P62136 7-330): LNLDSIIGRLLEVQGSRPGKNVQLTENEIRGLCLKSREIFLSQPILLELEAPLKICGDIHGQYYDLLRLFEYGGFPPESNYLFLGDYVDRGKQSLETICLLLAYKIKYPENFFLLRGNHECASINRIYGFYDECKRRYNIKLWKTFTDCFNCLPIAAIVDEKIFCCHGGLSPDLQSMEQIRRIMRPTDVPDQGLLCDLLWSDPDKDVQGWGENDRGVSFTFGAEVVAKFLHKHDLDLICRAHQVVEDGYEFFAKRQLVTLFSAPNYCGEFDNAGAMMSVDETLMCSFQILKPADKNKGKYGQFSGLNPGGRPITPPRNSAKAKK

stoichiometry N: 1
B1: I-2_(9-164) C85S (domain or fragment)
chain: PIKGILKNKTSTTSSMVASAEQPRGNVDEELSKKSQKWDEMNILATYHPADKDYGLMKIDEPSTPYHSMMGDDEDASSDTEATEAMAPDILARKLAAAEGLEPKYRIQEQESSGEEDSDLSPEEREKKRQFEMKRKLHYNEGLNIKLARQLISKDL
modifications: not checked
